# Results taken from patent US20210079040.
# B1: cathepsin K (enzyme, UniProt P43235 115-329, looked up, species assumed)
# Cathepsin K: APDSVDYRKKGYVTPVKNQGQCGSCWAFSSVGALEGQLKKKTGKLLNLSPQNLVDCVSENDGCGGGYMTNAFQYVQKNRGIDSEDAYPYVGQEESCMYNPTGKAAKCRGYREIPEGNEKALKRAVARVGPVSVAIDASLTSFQFYSKGVYYDESCNSDNLNHAVLAVGYGIQKGNKHWIIKNSWGENWGNKGYILMARNKNNACGIANLASFPKM
# B2: MMP 7 (enzyme, UniProt P09237 95-267, looked up, species assumed)
# Matrilysin: YSLFPNSPKWTSKVVTYRIVSYTRDLPHITVDRLVSKALNMWGKEIPLHFRKVVWGTADIMIGFARGAHGDSYPFDGPGNTLAHAFAPGTGLGGDAHFDEDERWTDGSSLGINFLYAATHELGHSLGMGHSSDPNAVMYPTYGNGDPQNFKLSQDDIKGIQKLYGKRSNSRKK
# B3: ADAMTS 4 (enzyme, UniProt O75173 213-837, looked up, species assumed)
# A disintegrin and metalloproteinase with thrombospondin motifs 4: FASLSRFVETLVVADDKMAAFHGAGLKRYLLTVMAAAAKAFKHPSIRNPVSLVVTRLVILGSGEEGPQVGPSAAQTLRSFCAWQRGLNTPEDSDPDHFDTAILFTRQDLCGVSTCDTLGMADVGTVCDPARSCAIVEDDGLQSAFTAAHELGHVFNMLHDNSKPCISLNGPLSTSRHVMAPVMAHVDPEEPWSPCSARFITDFLDNGYGHCLLDKPEAPLHLPVTFPGKDYDADRQCQLTFGPDSRHCPQLPPPCAALWCSGHLNGHAMCQTKHSPWADGTPCGPAQACMGGRCLHMDQLQDFNIPQAGGWGPWGPWGDCSRTCGGGVQFSSRDCTRPVPRNGGKYCEGRRTRFRSCNTEDCPTGSALTFREEQCAAYNHRTDLFKSFPGPMDWVPRYTGVAPQDQCKLTCQAQALGYYYVLEPRVVDGTPCSPDSSSVCVQGRCIHAGCDRIIGSKKKFDKCMVCGGDGSGCSKQSGSFRKFRYGYNNVVTIPAGATHILVRQQGNPGHRSIYLALKLPDGSYALNGEYTLMPSPTDVVLPGAVSLRYSGATAASETLSGHGPLAQPLTLQVLVAGNPQDTRLRYSFFVPRPTPSTPRPTPQDWLHRRAQILEILRRRPWAGRK
# Tested on: T1, Link N (human Link N, DHLSDNYTLDHDRAIH)
# T1 sequence: DHLSDNYTLDHDRAIH
row,Molecule,peak area intensity of the 1922 Da Link 1-16 peptide (mass spectrometry) after proteinase digest
1,ADAMTS 5,"un-affected by MMPs 3, 7, 12, 13, ADAMTS 4,5, HTRA1, and cathepsins B, and L"
2,HTRA1,"un-affected by MMPs 3, 7, 12, 13, ADAMTS 4,5, HTRA1, and cathepsins B, and L"
3,MMP 3,"un-affected by MMPs 3, 7, 12, 13, ADAMTS 4,5, HTRA1, and cathepsins B, and L"
4,MMP 12,"un-affected by MMPs 3, 7, 12, 13, ADAMTS 4,5, HTRA1, and cathepsins B, and L"
5,MMP 13,"un-affected by MMPs 3, 7, 12, 13, ADAMTS 4,5, HTRA1, and cathepsins B, and L"
6,cathepsin B,"un-affected by MMPs 3, 7, 12, 13, ADAMTS 4,5, HTRA1, and cathepsins B, and L"
7,cathepsin L,"un-affected by MMPs 3, 7, 12, 13, ADAMTS 4,5, HTRA1, and cathepsins B, and L"
8,B1,significantly diminished already after 30 minutes and was hardly detectable at 2 and 24 hours incubation with cathepsin K
9,B2,"un-affected by MMPs 3, 7, 12, 13, ADAMTS 4,5, HTRA1, and cathepsins B, and L"
10,B3,"un-affected by MMPs 3, 7, 12, 13, ADAMTS 4,5, HTRA1, and cathepsins B, and L"
